Experimental findings from paper PMC7057950 (2020) are described below.

A word on the Kd: it is the free concentration of one partner at which half of the binding sites on the other are occupied at equilibrium, for simple one-to-one binding.

The data set concerns the molecule itself.

B1: hHsp90β (protein)
chain: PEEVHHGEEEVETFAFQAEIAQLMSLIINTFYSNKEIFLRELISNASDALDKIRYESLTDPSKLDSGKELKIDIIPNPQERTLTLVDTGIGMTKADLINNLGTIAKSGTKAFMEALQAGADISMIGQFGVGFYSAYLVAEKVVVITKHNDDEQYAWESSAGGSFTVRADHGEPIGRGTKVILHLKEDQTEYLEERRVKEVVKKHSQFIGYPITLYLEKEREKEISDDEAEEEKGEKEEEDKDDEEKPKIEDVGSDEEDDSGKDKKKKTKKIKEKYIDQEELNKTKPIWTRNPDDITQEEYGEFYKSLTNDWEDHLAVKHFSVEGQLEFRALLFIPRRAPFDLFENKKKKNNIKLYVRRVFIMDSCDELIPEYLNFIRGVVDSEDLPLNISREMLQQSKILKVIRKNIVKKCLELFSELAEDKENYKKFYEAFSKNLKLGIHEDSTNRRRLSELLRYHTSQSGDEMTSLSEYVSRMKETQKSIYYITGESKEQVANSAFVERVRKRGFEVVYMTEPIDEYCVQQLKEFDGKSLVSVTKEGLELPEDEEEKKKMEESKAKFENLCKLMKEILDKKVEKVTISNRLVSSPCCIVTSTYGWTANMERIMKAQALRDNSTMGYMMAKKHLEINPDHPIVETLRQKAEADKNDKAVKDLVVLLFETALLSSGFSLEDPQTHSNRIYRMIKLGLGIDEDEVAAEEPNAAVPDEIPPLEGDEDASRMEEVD
The protein B1 came in with a Kd of around 9.5 nM.
